Data set [1] has as its target T1, CtNDT (Chroococcidiopsis thermalis, UniProt K9TVX3).
T1 construct: gene Chro_1188; homotetramer; residues 111 and 118 of the neighbouring subunit complete the site; expression host and tags only in supplement
In words: steady-state kinetics (details in supplement). The format is biochemical. The settings on record: nucleobase acceptor; kcat/KM only said to be similar.

The target in data set [2] is T2, CtNDT (Chroococcidiopsis thermalis, UniProt K9TVX3, V85S).
T2 construct: gene Chro_1188; homotetramer; residues 111 and 118 of the neighbouring subunit complete the site; expression host and tags only in supplement
T2 sequence (K9TVX3 entry or part of it V85S): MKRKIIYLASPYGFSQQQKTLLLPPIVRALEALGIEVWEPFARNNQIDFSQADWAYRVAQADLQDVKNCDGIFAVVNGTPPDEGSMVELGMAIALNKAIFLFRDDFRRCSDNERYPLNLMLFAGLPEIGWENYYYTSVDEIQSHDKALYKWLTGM
The data set is described as follows: HPLC initial rates, Michaelis-Menten. The class given is biochemical. The settings on record: adenine as nucleobase acceptor.

Data set [3] concerns the target T3, CtNDT (Chroococcidiopsis thermalis, UniProt K9TVX3, A9S).
T3 construct: gene Chro_1188; homotetramer; residues 111 and 118 of the neighbouring subunit complete the site; expression host and tags only in supplement
The data set is described as follows: HPLC initial rates, Michaelis-Menten. The settings on record: adenine as nucleobase acceptor. The format is biochemical.

In data set [4] the target is T4, CtNDT (Chroococcidiopsis thermalis, UniProt K9TVX3, Y7F/A9S).
T4 construct: gene Chro_1188; homotetramer; residues 111 and 118 of the neighbouring subunit complete the site; expression host and tags only in supplement
T4 sequence (K9TVX3 entry or part of it Y7F/A9S): as the sequence (K9TVX3 entry or part of it V85S) above, with Y7F, A9S, S85V counted along it
In words: X-ray crystal structure. The settings on record: active site, ribosyl-binding pocket.

The target in data set [5] is T5, CtNDT (Chroococcidiopsis thermalis, UniProt K9TVX3, A9S/Y7F).
T5 construct: gene Chro_1188; homotetramer; residues 111 and 118 of the neighbouring subunit complete the site; expression host and tags only in supplement
T5 sequence (K9TVX3 entry or part of it Y7F/A9S): as the sequence (K9TVX3 entry or part of it V85S) above, with Y7F, A9S, S85V counted along it
The data set is described as follows: binding assay (details in supplement).

Data set [6] addresses T6, CtNDT (Chroococcidiopsis thermalis, UniProt K9TVX3, Y7F).
T6 construct: gene Chro_1188; homotetramer; residues 111 and 118 of the neighbouring subunit complete the site; expression host and tags only in supplement
In words: X-ray crystal structure. The format is binding. The settings on record: active site; ligand placed in 2 of 4 protomers, less defined density.

Substrate in data set [7]: OC[C@H]1O[C@@H](n2cnc3c(O)ncnc32)[C@H](O)[C@@H]1O
In words: HPLC initial rates, Michaelis-Menten. The format is biochemical, Chroococcidiopsis thermalis. The settings on record: adenine as nucleobase acceptor.

Substrate in data set [8]: OC[C@H]1O[C@@H](n2cnc3c(O)ncnc32)[C@H](O)[C@@H]1O
In words: HPLC initial rates, Michaelis-Menten. The format is biochemical, Chroococcidiopsis thermalis. The settings on record: adenine as nucleobase acceptor. From the text: HPLC initial rates, Michaelis-Menten on CtNDT | evaluated with inosine as the sugar donor and adenine as the […]
This is another data set of the same source.

Numbering of substitutions follows the chain as printed. Names and notes keep the numbering of the source.

Results on 10 molecules are retold here after PMC12645435, “Improved Nucleoside (2′-Deoxy)Ribosyltransferases Maximize Enzyme Promiscuity while Maintaining Catalytic Efficiency” (ACS Chemical Biology, 2025).

T1 sequence (K9TVX3 entry or part of it): as the sequence (K9TVX3 entry or part of it V85S) above, with S85V counted along it
T3 sequence (K9TVX3 entry or part of it A9S): as the sequence (K9TVX3 entry or part of it V85S) above, with A9S, S85V counted along it
T6 sequence (K9TVX3 entry or part of it Y7F): as the sequence (K9TVX3 entry or part of it V85S) above, with Y7F, S85V counted along it

With `O=c1[nH]cnc2nc[nH]c12` [hypoxanthine], the “k cat/K M” value on CtNDT [1] is “uric acid, xanthine, and hypoxanthine, which have similar k cat/K M values”.
On the same count and under the same terms, with `O=c1[nH]c(=O)c2[nH]cnc2[nH]1` [xanthine] the entry was “uric acid, xanthine, and hypoxanthine, which have similar k cat/K M values”.
As to `O=c1[nH]cnc2c1ncn2[C@@H]1O[C@H](CO)[C@@H](O)[C@H]1O` [inosine], the “K M-inosine” value at CtNDT [2] and at CtNDT [3] was “These mutants had modest changes in K M‑inosine” each time.
Turning to `Nc1ncnc2c1ncn2[C@@H]1O[C@H](CO)C[C@H]1O` [cordycepin], the X-ray crystal structure at CtNDT [4] was 9EMXCtNDTY7F‑A9S bound to Cordycepin.
In general, Kd refers to a measure of binding affinity in units of concentration. Low readings indicate tighter binding, high ones weaker binding. The molecule `O=c1[nH]cnc2c([C@@H]3N[C@H](CO)[C@@H](O)[C@H]3O)c[nH]c12` [Immucillin-H] yielded a Kd on CtNDT [5] of 590 µM. Besides, the X-ray crystal structure on CtNDT [6] is on record as 9EMWCtNDTY7F bound to ImmH.

B1: CtNDT (Chroococcidiopsis thermalis PCC 7203; Y7A) (protein)
chain: MKRKIIALASPYGFSQQQKTLLLPPIVRALEALGIEVWEPFARNNQIDFSQADWAYRVAQADLQDVKNCDGIFAVVNGTPPDEGVMVELGMAIALNKAIFLFRDDFRRCSDNERYPLNLMLFAGLPEIGWENYYYTSVDEIQSHDKALYKWLTGM
notes: homotetramer; residues 111 and 118 of the neighbouring subunit complete the site; expression host and tags only in supplement
As usually defined, the Km is the concentration of substrate that gives half-maximal velocity. The kcat is the number of substrate molecules converted per active site and unit of time at saturation. B1: in data set [7], the Km came to 530 ± 10 µM and the kcat was 0.02 ± 0.01 s⁻¹.

B2: CtNDT (Chroococcidiopsis thermalis PCC 7203) (protein)
chain: B1 chain with A7Y
notes: as for B1
On to B2, for which, in data set [8], the Km came out at 920 ± 240 µM and the kcat came out at 0.01 ± 0.01 s⁻¹.

B3: CtNDT (Chroococcidiopsis thermalis PCC 7203; A9S/Y7F) (protein)
chain: B1 chain with A7F, A9S
notes: as for B1
For the molecule B3, the Km in data set [7] was found to be 620 µM.

B4: CtNDT (Chroococcidiopsis thermalis PCC 7203; Y7F) (protein)
chain: B1 chain with A7F
notes: as for B1
For the molecule B4, in data set [7], the Km is 710 ± 170 µM and the turnover number (kcat) worked out at 0.03 ± 0.01 s⁻¹.

B5: CtNDT (Chroococcidiopsis thermalis PCC 7203; D62N) (protein)
chain: B1 chain with A7Y, D62N
notes: as for B1
As for B5, in data set [7], the Km was found to be 800 ± 90 µM and the kcat amounted to 0.002 ± 0.001 s⁻¹.
